Source: article PMC10831263 (The Journal of Biological Chemistry, 2023)

T1: GST-HERC2 (2540–2700th) (human, UniProt O95714 2540-2700)
T1 construct: also called HECT and RLD domains-containing E3 ubiquitin protein ligase 2; not shown: GST, N-terminal, kept
T1 sequence (looked up): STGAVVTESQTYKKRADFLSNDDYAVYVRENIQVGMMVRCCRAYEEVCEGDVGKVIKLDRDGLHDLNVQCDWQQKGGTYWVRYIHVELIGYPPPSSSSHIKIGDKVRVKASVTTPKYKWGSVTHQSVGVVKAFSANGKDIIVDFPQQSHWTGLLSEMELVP


Key:
GST-HERC2 (2540–2700th) = molecular target: T1, GST-HERC2 (2540–2700th); experiment: pull-down; GST pull-down of HERC2 with Fe-S-bound NCOA4 (383–522nd): freshly purified or reconstituted; details: both partners purified
GST-tagged FTH = molecular target: T2, GST-tagged FTH (human, UniProt P02794 1-183); experiment: pull-down; His-pulldown; His-tagged NCOA4 (383–522nd) WT or mutants and GST-tagged FTH, each expressed in E. coli and purified; read by immunoblotting; details: both partners purified
T2 construct: ferritin heavy chain 1 (FTH), human; also called GST-FTH; ferritin heavy chain 1; not shown: GST, N-terminal, kept
T2 sequence (P02794 whole entry): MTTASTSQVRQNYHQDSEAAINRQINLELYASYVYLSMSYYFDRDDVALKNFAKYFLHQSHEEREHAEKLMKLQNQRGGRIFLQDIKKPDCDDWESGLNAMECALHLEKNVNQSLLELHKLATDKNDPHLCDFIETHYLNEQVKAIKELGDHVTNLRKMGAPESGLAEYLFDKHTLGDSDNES

[1] = molecular target: the molecule itself; experiment: nonreducing gel electrophoresis; purified his-tagged NCOA4 (383–522nd) WT or mutants on a nonreducing gel, with or without β-ME (10 mM) or DTT (5 mM); the reductants converted the dimer into monomers

Binder | binding result (GST-HERC2 (2540–2700th)) | binding result (GST-tagged FTH) | binding result [1]
his-tagged NCOA4 (383–522nd) recombinant protein, WT (domain or fragment, human, UniProt Q13772-1 383-522, looked up, Expressed from pQE80L; also called purified NCOA4; not shown: His6, N-terminal, kept) SMVTEDWLVQNHQDPCKVEEVCRANEPCTSFAECVCDENCEKEALYKWLLKKEGKDKNGMPVEPKPEPEKHKDSLNMWLCPRKEVIEQTKAPKAMTPSRIADSFQVIKNSPLSEWLIRPPYKEGSPKEVPGTEDRAGKQK | binds | binds | 
his-tagged NCOA4 (383–522nd) C416A (domain or fragment, human, UniProt Q13772-1 383-522, looked up) SMVTEDWLVQNHQDPCKVEEVCRANEPCTSFAEAVCDENCEKEALYKWLLKKEGKDKNGMPVEPKPEPEKHKDSLNMWLCPRKEVIEQTKAPKAMTPSRIADSFQVIKNSPLSEWLIRPPYKEGSPKEVPGTEDRAGKQK |  |  | binds
his-tagged NCOA4 (383–522nd) C398S (domain or fragment, human, UniProt Q13772-1 383-522, looked up, C398A was insoluble, so C398S was made in its place) SMVTEDWLVQNHQDPSKVEEVCRANEPCTSFAECVCDENCEKEALYKWLLKKEGKDKNGMPVEPKPEPEKHKDSLNMWLCPRKEVIEQTKAPKAMTPSRIADSFQVIKNSPLSEWLIRPPYKEGSPKEVPGTEDRAGKQK |  |  | binds
his-tagged NCOA4 (383–522nd) 4C > A (domain or fragment, human, UniProt Q13772-1 383-522, looked up, also called four cysteine residues substitution by alanine; not shown: His6, N-terminal, kept) SMVTEDWLVQNHQDPCKVEEVARANEPATSFAEAVCDENAEKEALYKWLLKKEGKDKNGMPVEPKPEPEKHKDSLNMWLCPRKEVIEQTKAPKAMTPSRIADSFQVIKNSPLSEWLIRPPYKEGSPKEVPGTEDRAGKQK |  | binds | 
his-tagged NCOA4 (383–522nd) C422A (domain or fragment, human, UniProt Q13772-1 383-522, looked up) SMVTEDWLVQNHQDPCKVEEVCRANEPCTSFAECVCDENAEKEALYKWLLKKEGKDKNGMPVEPKPEPEKHKDSLNMWLCPRKEVIEQTKAPKAMTPSRIADSFQVIKNSPLSEWLIRPPYKEGSPKEVPGTEDRAGKQK |  |  | binds
his-tagged NCOA4 (383–522nd) C410A (domain or fragment, human, UniProt Q13772-1 383-522, looked up) SMVTEDWLVQNHQDPCKVEEVCRANEPATSFAECVCDENCEKEALYKWLLKKEGKDKNGMPVEPKPEPEKHKDSLNMWLCPRKEVIEQTKAPKAMTPSRIADSFQVIKNSPLSEWLIRPPYKEGSPKEVPGTEDRAGKQK |  |  | binds
his-tagged NCOA4 (383–522nd) C462A (domain or fragment, human, UniProt Q13772-1 383-522, looked up) SMVTEDWLVQNHQDPCKVEEVCRANEPCTSFAECVCDENCEKEALYKWLLKKEGKDKNGMPVEPKPEPEKHKDSLNMWLAPRKEVIEQTKAPKAMTPSRIADSFQVIKNSPLSEWLIRPPYKEGSPKEVPGTEDRAGKQK |  |  | binds
his-tagged NCOA4 (383–522nd) C404A (domain or fragment, human, UniProt Q13772-1 383-522, looked up) SMVTEDWLVQNHQDPCKVEEVARANEPCTSFAECVCDENCEKEALYKWLLKKEGKDKNGMPVEPKPEPEKHKDSLNMWLCPRKEVIEQTKAPKAMTPSRIADSFQVIKNSPLSEWLIRPPYKEGSPKEVPGTEDRAGKQK |  |  | binds
his-tagged NCOA4 (383–522nd) C418A (domain or fragment, human, UniProt Q13772-1 383-522, looked up) SMVTEDWLVQNHQDPCKVEEVCRANEPCTSFAECVADENCEKEALYKWLLKKEGKDKNGMPVEPKPEPEKHKDSLNMWLCPRKEVIEQTKAPKAMTPSRIADSFQVIKNSPLSEWLIRPPYKEGSPKEVPGTEDRAGKQK |  |  | binds
